In PMC6168492:

How the values were obtained:
[1] = molecular target: DIII of MSA (residues 381-584) with C-terminal GST (mouse); assay: SPR; Biacore T200; albumin variants amine-coupled on CM5 (~200 or 500 RU); monomeric His-tagged hFcRn or mFcRn injected in serial dilutions; phosphate buffer (177 mM phosphate, 85 mM NaCl, 0.05% Tween 20) pH 5.5, 30 µl/min, 25 °C; 1:1 Langmuir model
[2] = molecular target: HSA K573P with C-terminal GST (human); assay: as above
[3] = molecular target: MSA-hDI (MSA with human DI, residues 1-190 from HSA) with C-terminal GST (human | mouse); assay: as above
[4] = molecular target: MSA-hLoopI + II (MSA N83T/L87M/S111N/P114R) with C-terminal GST (mouse); assay: as above
[5] = molecular target: wild-type mouse serum albumin with C-terminal GST (mouse); assay: SPR; albumin immobilised (200 RU) on CM5 chip by amine coupling, serial dilutions of monomeric His-tagged FcRn injected; pH 5.5, 0.005% Tween20, 30 µl/min, 25 °C; 1:1 Langmuir model
Chain of wild-type mouse serum albumin with C-terminal GST (mouse) (P07724 25-608): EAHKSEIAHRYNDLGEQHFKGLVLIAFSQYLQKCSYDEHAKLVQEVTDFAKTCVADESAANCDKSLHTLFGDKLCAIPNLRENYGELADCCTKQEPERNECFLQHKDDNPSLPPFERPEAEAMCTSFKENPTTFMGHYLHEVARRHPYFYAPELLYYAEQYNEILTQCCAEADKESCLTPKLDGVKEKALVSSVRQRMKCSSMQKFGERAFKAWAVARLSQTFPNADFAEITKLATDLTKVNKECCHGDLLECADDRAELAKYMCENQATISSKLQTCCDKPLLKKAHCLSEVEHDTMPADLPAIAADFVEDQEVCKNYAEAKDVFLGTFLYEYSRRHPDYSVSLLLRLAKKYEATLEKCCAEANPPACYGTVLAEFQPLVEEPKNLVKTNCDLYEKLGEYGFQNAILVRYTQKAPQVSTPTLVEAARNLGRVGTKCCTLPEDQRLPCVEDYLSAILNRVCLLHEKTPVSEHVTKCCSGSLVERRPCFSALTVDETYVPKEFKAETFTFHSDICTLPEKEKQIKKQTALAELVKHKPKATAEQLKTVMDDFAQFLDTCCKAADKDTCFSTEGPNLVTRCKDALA

[6] = molecular target: DIII of HSA (residues 381-585) with C-terminal GST (human); assay: SPR; Biacore T200; albumin variants amine-coupled on CM5 (~200 or 500 RU); monomeric His-tagged hFcRn or mFcRn injected in serial dilutions; phosphate buffer (177 mM phosphate, 85 mM NaCl, 0.05% Tween 20) pH 5.5, 30 µl/min, 25 °C; 1:1 Langmuir model
[7] = molecular target: HSA N111S with C-terminal GST (human); assay: as above
[8] = molecular target: HSA R114P with C-terminal GST (human); assay: as above
[9] = molecular target: HSA-mDI (HSA with mouse DI, residues 1-190 from MSA) with C-terminal GST (mouse | human); assay: as above
[10] = molecular target: HSA-mLoopI + II (HSA T83N/M87L/N111S/R114P) with C-terminal GST (human); assay: as above
[11] = molecular target: MSA P573K with C-terminal GST (mouse); assay: as above

Row | Kd [1] [nM] | koff [1] [s⁻¹] | kon [1] [M⁻¹ s⁻¹] | Kd [2] [nM] | koff [2] [s⁻¹] | kon [2] [M⁻¹ s⁻¹] | Kd [3] [nM] | koff [3] [s⁻¹] | kon [3] [M⁻¹ s⁻¹] | Kd [4] [nM] | koff [4] [s⁻¹] | kon [4] [M⁻¹ s⁻¹] | Substance | other results
1 | 620 | 0.0093 | 15000 | 1230 | 0.0197 | 16000 | 705 | 0.0148 | 21000 | 375 | 0.0075 | 20000 | soluble monomeric His-tagged mouse neonatal Fc receptor (mFcRn) (from UniProt Q61559 22-297; P01887 21-119) | 
2 |  |  |  |  |  |  |  |  |  |  |  |  | soluble mouse neonatal Fc receptor (mFcRn), His-tagged, monomeric (from UniProt Q61559 22-365; P01887 21-119) | Kd [5]: 324 nM; koff [5]: 0.0123 s⁻¹; kon [5]: 38000 M⁻¹ s⁻¹
3 | 119 | 0.0057 | 48000 | 22.2 | 0.0006 | 27000 | 70.2 | 0.0047 | 67000 | 145 | 0.0074 | 51000 | soluble monomeric His-tagged human neonatal Fc receptor (hFcRn) (from UniProt P55899 24-297; P61769 21-119) | Kd [6]: 3170 nM; koff [6]: 0.0349 s⁻¹; kon [6]: 11000 M⁻¹ s⁻¹; Kd [7]: 162 nM; koff [7]: 0.006 s⁻¹; kon [7]: 37000 M⁻¹ s⁻¹; Kd [8]: 554 nM; koff [8]: 0.0122 s⁻¹; kon [8]: 22000 M⁻¹ s⁻¹; Kd [9]: 1440 nM; koff [9]: 0.0202 s⁻¹; kon [9]: 14000 M⁻¹ s⁻¹; Kd [10]: 823 nM; koff [10]: 0.0214 s⁻¹; kon [10]: 26000 M⁻¹ s⁻¹; Kd [11]: 3670 nM; koff [11]: 0.0734 s⁻¹; kon [11]: 20000 M⁻¹ s⁻¹
